Assays:
BMPR-IA (ALK-3) = target: T1, BMPR-IA (ALK-3) (Homo sapiens, UniProt P36894); assay: In vitro kinase assay (autophosphorylation) of receptor expressed in COS-7 cells; type: biochemical; conditions: 10 μM peptide, FIG. 5
T1 construct: made in house; host or cells: COS-7 cells (transfected, immunoprecipitated)
Procedure: (§1) For in vitro kinase assay of type I and type II TGFβ family receptors, p38α and SAPKα2 kinases, COS-7 cells were transfected with the kinase expression vectors or the control empty pcDNA3 vector using the DEAE-dextran method. Proteins were extracted in a lysis buffer (50 mM Tris-HCl, pH 7.5, 50 mM NaCl, 1% NP-40, 10 μg/mL aprotinin, 0.1 mM PMSF). HA-tagged proteins (ALK1 to ALK7, p38R, SAPKR2) were immunoprecipitated with anti-HA antibody (12CA5; Roche); His6-tagged proteins (type II receptors) were precipitated with Ni-NTA agarose (Qiagen). The precipitates were washed in extraction buffer, with 20 mM imidazole for Ni-NTA agarose-precipitated proteins, and two times with kinase buffer (20 mM HEPES, pH 7.4, 10 mM MgCl2, 2 mM MnCl2, 1 mM DTT). The kinase reaction was initiated by addition of 20 μL of kinase buffer containing 0.5 μCi of [γ-32P]ATP, 5.0 μM ATP, and inhibitory peptides at a final concentration of 10 μM. The reaction was performed at 22° C. for 20 min and terminated by addition of SDS-containing sample buffer and boiling for 5 min. The reaction products were analyzed by SDS-PAGE and exposure in a Fuji X2000 phosphorimager. Equal loading was controlled by immunoblotting aliquots of the samples with a HA probe (Y-11; Santa Cruz) or anti-His antibody (Qiagen).
(§2) To evaluate whether the substrate-mimicking peptides affect kinases of type I and type II reptors of the TGFβ family, we studied the influence of peptides on authophosphorylation of all known mammalian type I receptors [ALK-1, ActR-I (ALK-2), BMPR-IA (ALK-3), ActR-IB (ALK-4), TβR-I (ALK-5), BMPR-IB (ALK-6), and ALK-7], TβRII, ActR-II, BMPR-II, p38R, and SAPKR2 (FIG. 5). The kinases were expressed in COS-7 cells and purified by using specific anti-tag antibodies or Ni-NTA agarose, and kinase activity was tested in the presence of peptides.

BMPR-II = target: T2, BMPR-II (Homo sapiens, UniProt Q13873); assay: as above; type: biochemical; conditions: 10 μM peptide, FIG. 5
T2 construct: made in house; host or cells: COS-7 cells (transfected, Ni-NTA precipitated)
T2 sequence (Q13873 27-1038): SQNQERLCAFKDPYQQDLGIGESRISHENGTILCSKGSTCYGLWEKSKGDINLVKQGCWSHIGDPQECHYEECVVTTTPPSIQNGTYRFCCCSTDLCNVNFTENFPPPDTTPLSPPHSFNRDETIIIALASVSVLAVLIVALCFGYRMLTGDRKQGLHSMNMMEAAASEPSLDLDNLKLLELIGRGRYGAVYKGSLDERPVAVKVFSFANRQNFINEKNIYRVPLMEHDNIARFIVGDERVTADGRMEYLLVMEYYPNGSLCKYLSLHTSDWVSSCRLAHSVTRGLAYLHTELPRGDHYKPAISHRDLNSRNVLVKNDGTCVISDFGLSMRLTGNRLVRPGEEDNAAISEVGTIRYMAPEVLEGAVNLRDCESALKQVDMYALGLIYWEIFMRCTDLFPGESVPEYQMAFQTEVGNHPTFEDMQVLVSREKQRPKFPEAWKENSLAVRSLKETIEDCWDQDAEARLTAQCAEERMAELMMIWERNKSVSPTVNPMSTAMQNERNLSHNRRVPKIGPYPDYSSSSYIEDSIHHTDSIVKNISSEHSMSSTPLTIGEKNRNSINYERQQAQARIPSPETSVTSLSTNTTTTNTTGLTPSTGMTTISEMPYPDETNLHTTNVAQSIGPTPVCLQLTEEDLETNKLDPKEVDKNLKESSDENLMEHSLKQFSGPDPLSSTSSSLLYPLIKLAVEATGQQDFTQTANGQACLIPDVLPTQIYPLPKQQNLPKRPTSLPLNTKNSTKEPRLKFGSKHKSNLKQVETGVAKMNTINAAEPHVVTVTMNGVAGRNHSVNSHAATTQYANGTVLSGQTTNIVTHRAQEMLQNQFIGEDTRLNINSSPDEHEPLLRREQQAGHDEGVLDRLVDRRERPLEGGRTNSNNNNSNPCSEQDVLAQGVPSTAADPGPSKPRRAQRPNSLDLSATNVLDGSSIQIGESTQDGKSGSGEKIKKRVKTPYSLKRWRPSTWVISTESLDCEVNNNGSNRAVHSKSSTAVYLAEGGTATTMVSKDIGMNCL
Procedure: as §1, §2

TβR-I (ALK-5) = target: T3, TβR-I (ALK-5) (Homo sapiens, UniProt P36897); assay: as above; type: biochemical; conditions: 10 μM peptide, FIG. 5
T3 construct: made in house; host or cells: COS-7 cells (transfected, immunoprecipitated)
T3 sequence (P36897 34-503): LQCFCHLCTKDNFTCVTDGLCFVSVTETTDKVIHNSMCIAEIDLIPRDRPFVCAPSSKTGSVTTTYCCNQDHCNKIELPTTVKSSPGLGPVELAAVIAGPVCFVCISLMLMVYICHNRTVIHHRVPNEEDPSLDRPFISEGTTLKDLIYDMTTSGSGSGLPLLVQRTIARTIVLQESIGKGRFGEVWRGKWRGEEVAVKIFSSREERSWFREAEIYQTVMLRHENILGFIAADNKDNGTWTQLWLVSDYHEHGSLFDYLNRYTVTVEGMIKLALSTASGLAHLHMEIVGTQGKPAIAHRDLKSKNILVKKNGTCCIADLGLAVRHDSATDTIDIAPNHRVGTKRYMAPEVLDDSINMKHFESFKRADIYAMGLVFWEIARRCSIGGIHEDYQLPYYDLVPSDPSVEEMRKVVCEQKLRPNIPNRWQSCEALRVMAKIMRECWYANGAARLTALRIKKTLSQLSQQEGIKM
Procedure: as §1, §2

[1] = system: TGFβ1-dependent stimulation of ARE-luc in Mv1Lu cells; assay: ARE-luc luciferase reporter assay (Smad2-responsive element) in Mv1Lu cells; type: cell-based; conditions: peptide 50 μM, TGFβ1 10 ng/ml, 18 hours

T1 sequence (P36894 24-532, species assumed): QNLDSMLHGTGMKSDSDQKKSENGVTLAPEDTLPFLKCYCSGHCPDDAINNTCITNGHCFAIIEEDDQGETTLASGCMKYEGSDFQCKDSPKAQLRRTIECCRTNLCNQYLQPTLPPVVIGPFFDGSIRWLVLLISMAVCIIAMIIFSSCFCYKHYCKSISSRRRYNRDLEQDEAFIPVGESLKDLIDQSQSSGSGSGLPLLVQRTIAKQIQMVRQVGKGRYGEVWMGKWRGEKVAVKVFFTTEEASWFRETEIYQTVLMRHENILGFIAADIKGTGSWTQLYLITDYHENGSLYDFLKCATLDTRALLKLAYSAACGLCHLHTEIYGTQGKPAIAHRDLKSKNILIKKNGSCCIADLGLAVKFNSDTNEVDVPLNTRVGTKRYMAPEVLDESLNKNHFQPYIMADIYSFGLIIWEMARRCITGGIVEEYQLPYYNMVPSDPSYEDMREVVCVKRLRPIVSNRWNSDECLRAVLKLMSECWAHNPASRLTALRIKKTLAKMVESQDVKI

Row | Sequence | Effect on BMPR-IA (ALK-3) kinase (BMPR-IA (ALK-3)) | Effect on BMPR-II kinase (BMPR-II) | Effect on TβR-I kinase (TβR-I (ALK-5)) | Inhibition of TGFβ1-dependent stimulation of ARE-luc [1] | Effect on TGFβ1-dependent stimulation of ARE-luc [1]
1 | RQIKIWFQNRRMKWKKTQMGSPSVRCSAMA (listed as Homo sapiens) [antp-Sm2A] | without any effect | without any effect | inhibited | up to 31% | 
2 | RQIKIWFQNRRMKWKKTQMGSPSVRCSSMS (listed as Homo sapiens) [antp-Sm2S, penetratin fused to the C-terminus of wild-type Smad2] | without any effect | without any effect | inhibited |  | no effect

From US20050136043A1, “TGFbeta signaling inhibitors” (Ludwig Institute for Cancer Research, priority 2003, published 2005)
